Measured values as given in article PMC6650354.
Like-named read-outs stand apart in the source and are kept apart here. Values belong to the substance of their own block, whether it stands above or below them.

Experiments:
[1] = target: AL-09 H87Y restorative mutant light chain variable domain protein (human) (UniProt P01594); experiment: HPLC sedimentation assay
[2] = target: AL-09 H87Y restorative mutant light chain variable domain protein (human) (UniProt P01594); experiment: HPLC sedimentation assay; remark: listed apart in the source
[3] = target: AL-12 R65S restorative mutant light chain variable domain protein (human) (UniProt P01594); experiment: HPLC sedimentation assay
[4] = target: κI O18/O8 germline (control) light chain variable domain protein (human) (UniProt P01594); experiment: HPLC sedimentation assay
[5] = target: κI O18/O8 germline (control) light chain variable domain protein (human) (UniProt P01594); experiment: HPLC sedimentation assay; remark: listed apart in the source
[6] = target: immunoglobulin light chain κI O18/O8 variable domain (Homo sapiens) (UniProt P01594); details: cited from earlier work

critical concentration (Cr) of fibril growth [1]: 2.4 µM | critical concentration (Cr) of fibril growth [2]: 2.8 µM
Substance: AL-09 H87Y restorative mutant light chain variable domain protein (from UniProt P01594 23-117) (domain or fragment)

critical concentration (Cr) of fibril growth [3]: 3.4 µM
Substance: AL-12 R65S restorative mutant light chain variable domain protein (from UniProt P01594 23-111) (domain or fragment)

critical concentration (Cr) of fibril growth [4]: 1.2 µM | critical concentration (Cr) of fibril growth [5]: 3.2 µM
Substance: κI O18/O8 germline (control) light chain variable domain protein (from UniProt P01594 23-117) (domain or fragment)

Substance: immunoglobulin light chain κI O18/O8 variable domain (from UniProt P01594)
Kd [6]: 217 µM
